# Experimental data as given in article PMC6534667.
# Target: scFv PL2-6 (single-chain antibody variable fragment);Histone octamer H3 (H2A, H2B, H3, H4) (Mus musculus (mouse mAb PL2-6);Drosophila) (UniProt P84051+P02283+P02299+P84040)
# Test: ITC
# Settings: ITC: 20 mM Tris-HCl pH 7.4, 50 mM NaCl, 1 mM EDTA, 25 C; EMSA: 10 mM Tris pH 7.4, 1 mM EDTA, 30 mM NaCl, 1% Ficoll 6000, on ice 10 min, 5% acrylamide gel in …
substance,measurement,value
147 bp Widom 601 DNA (W601),Kd,0.19 µM
